From the supplement of paper PMC10567573

B1: KLHL14 (parent)
chain: CAVLDDSIYLVGGYSWSMGAYKSS

Variants of: B1
Experiment: protein stability index of a GFP-peptide fusion (GPS, HEK-293T) (PSI 1-6); higher = more stable
Conditions: c terminus: a fixed tail appended
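Further: lentivirally expressed fusions sorted by FACS into six bins by GFP to DsRed ratio, PSI derived from sequencing read proportions per bin multiplied by bin number.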

Variant | protein stability index
CAVLADSIYLVGGYSWSMGAYKSS [D5A] | 2.24
CAVLLDSIYLVGGYSWSMGAYKSS [D5L] | 3.33
CAVLEDSIYLVGGYSWSMGAYKSS [D5E] | 2.7
CAVLGDSIYLVGGYSWSMGAYKSS [D5G] | 1.41
CAVLYDSIYLVGGYSWSMGAYKSS [D5Y] | 1.54
CAVLVDSIYLVGGYSWSMGAYKSS [D5V] | 2.29
CAVLNDSIYLVGGYSWSMGAYKSS [D5N] | 4.88
CAVLFDSIYLVGGYSWSMGAYKSS [D5F] | 3.77
CAVLPDSIYLVGGYSWSMGAYKSS [D5P] | 2.72
CAVLSDSIYLVGGYSWSMGAYKSS [D5S] | 2
CAVLIDSIYLVGGYSWSMGAYKSS [D5I] | 2.19
CAVLMDSIYLVGGYSWSMGAYKSS [D5M] | 4.24
CAVLKDSIYLVGGYSWSMGAYKSS [D5K] | 3.02
CAVLWDSIYLVGGYSWSMGAYKSS [D5W] | 3.27
CAVNDDSIYLVGGYSWSMGAYKSS [L4N] | 3.26
CAVMDDSIYLVGGYSWSMGAYKSS [L4M] | 2.96
CAVYDDSIYLVGGYSWSMGAYKSS [L4Y] | 2.19
CAVPDDSIYLVGGYSWSMGAYKSS [L4P] | 1.74
CAVWDDSIYLVGGYSWSMGAYKSS [L4W] | 1.6
CAVADDSIYLVGGYSWSMGAYKSS [L4A] | 1.36
CAVHDDSIYLVGGYSWSMGAYKSS [L4H] | 2.12
CAVKDDSIYLVGGYSWSMGAYKSS [L4K] | 2.18
CAVGDDSIYLVGGYSWSMGAYKSS [L4G] | 1.55
CAVSDDSIYLVGGYSWSMGAYKSS [L4S] | 1.49

Variant | protein stability index
CAVVDDSIYLVGGYSWSMGAYKSS [L4V] | 1.79
CAVIDDSIYLVGGYSWSMGAYKSS [L4I] | 2.15
CAVRDDSIYLVGGYSWSMGAYKSS [L4R] | 2.33
CAVDDDSIYLVGGYSWSMGAYKSS [L4D] | 2.19
CAVTDDSIYLVGGYSWSMGAYKSS [L4T] | 2.78
CAVCDDSIYLVGGYSWSMGAYKSS [L4C] | 1.78
CAVLDDGIYLVGGYSWSMGAYKSS [S7G] | 3.23
CAVLDDVIYLVGGYSWSMGAYKSS [S7V] | 2.46
CAVLDDRIYLVGGYSWSMGAYKSS [S7R] | 1.84
CAVLDDFIYLVGGYSWSMGAYKSS [S7F] | 2.81
CAVLDDQIYLVGGYSWSMGAYKSS [S7Q] | 3.47
CAVLDDMIYLVGGYSWSMGAYKSS [S7M] | 2.99
CAVLDDLIYLVGGYSWSMGAYKSS [S7L] | 3.32
CAVLDDPIYLVGGYSWSMGAYKSS [S7P] | 2.54
CAVLDDCIYLVGGYSWSMGAYKSS [S7C] | 3.58
CAVLDDAIYLVGGYSWSMGAYKSS [S7A] | 2.04
CAVLDDYIYLVGGYSWSMGAYKSS [S7Y] | 3.75
CAVLDDEIYLVGGYSWSMGAYKSS [S7E] | 1.99
CAVLDDIIYLVGGYSWSMGAYKSS [S7I] | 2.49
CAVLDDNIYLVGGYSWSMGAYKSS [S7N] | 2.59
CAVLDDHIYLVGGYSWSMGAYKSS [S7H] | 2.24
CAVLDDTIYLVGGYSWSMGAYKSS [S7T] | 1.52
CADLDDSIYLVGGYSWSMGAYKSS [V3D] | 1.57
CATLDDSIYLVGGYSWSMGAYKSS [V3T] | 2.94

Variant | protein stability index
CAMLDDSIYLVGGYSWSMGAYKSS [V3M] | 2.9
CASLDDSIYLVGGYSWSMGAYKSS [V3S] | 2.3
CAFLDDSIYLVGGYSWSMGAYKSS [V3F] | 2.85
CAYLDDSIYLVGGYSWSMGAYKSS [V3Y] | 1.57
CALLDDSIYLVGGYSWSMGAYKSS [V3L] | 2.21
CAHLDDSIYLVGGYSWSMGAYKSS [V3H] | 1.67
CAGLDDSIYLVGGYSWSMGAYKSS [V3G] | 1.48
CAPLDDSIYLVGGYSWSMGAYKSS [V3P] | 2.58
CAALDDSIYLVGGYSWSMGAYKSS [V3A] | 2.03
CAELDDSIYLVGGYSWSMGAYKSS [V3E] | 2.77
CAQLDDSIYLVGGYSWSMGAYKSS [V3Q] | 2.39
CAWLDDSIYLVGGYSWSMGAYKSS [V3W] | 2.71
CAILDDSIYLVGGYSWSMGAYKSS [V3I] | 2.56
CANLDDSIYLVGGYSWSMGAYKSS [V3N] | 2.57
CARLDDSIYLVGGYSWSMGAYKSS [V3R] | 2.4
CAVLDDSFYLVGGYSWSMGAYKSS [I8F] | 2.55
CAVLDDSRYLVGGYSWSMGAYKSS [I8R] | 1.64
CAVLDDSYYLVGGYSWSMGAYKSS [I8Y] | 2.96
CAVLDDSVYLVGGYSWSMGAYKSS [I8V] | 2.52
CAVLDDSAYLVGGYSWSMGAYKSS [I8A] | 2.44
CAVLDDSQYLVGGYSWSMGAYKSS [I8Q] | 1.11
CAVLDDSNYLVGGYSWSMGAYKSS [I8N] | 1.65
CAVLDDSMYLVGGYSWSMGAYKSS [I8M] | 2.62
CAVLDDSSYLVGGYSWSMGAYKSS [I8S] | 1.73

Variant | protein stability index
CAVLDDSEYLVGGYSWSMGAYKSS [I8E] | 1.13
CAVLDDSKYLVGGYSWSMGAYKSS [I8K] | 1.77
CAVLDDSGYLVGGYSWSMGAYKSS [I8G] | 1.22
CAVLDDSHYLVGGYSWSMGAYKSS [I8H] | 1.93
CAVLDDSCYLVGGYSWSMGAYKSS [I8C] | 3.23
CAVLDDSPYLVGGYSWSMGAYKSS [I8P] | 1.93
CAVLDDSDYLVGGYSWSMGAYKSS [I8D] | 2.22
CAVLDDSWYLVGGYSWSMGAYKSS [I8W] | 1.8
CAVLDDSTYLVGGYSWSMGAYKSS [I8T] | 3.78
CAVLDDSLYLVGGYSWSMGAYKSS [I8L] | 2.23
CAVLDDSIHLVGGYSWSMGAYKSS [Y9H] | 2.3
CAVLDDSINLVGGYSWSMGAYKSS [Y9N] | 1.56
CAVLDDSIGLVGGYSWSMGAYKSS [Y9G] | 1.28
CAVLDDSIWLVGGYSWSMGAYKSS [Y9W] | 2.43
CAVLDDSIKLVGGYSWSMGAYKSS [Y9K] | 1.36
CAVLDDSIRLVGGYSWSMGAYKSS [Y9R] | 3.35
CAVLDDSIMLVGGYSWSMGAYKSS [Y9M] | 3.37
CAVLDDSISLVGGYSWSMGAYKSS [Y9S] | 1.51
CAVLDDSILLVGGYSWSMGAYKSS [Y9L] | 3.26
CAVLDDSICLVGGYSWSMGAYKSS [Y9C] | 3.86
CAVLDDSIILVGGYSWSMGAYKSS [Y9I] | 1.86
CAVLDDSIELVGGYSWSMGAYKSS [Y9E] | 2.28
